# Measurements reported in patent publication US20260242455A1 (SCHOLAR ROCK, published 2026).
# Substitutions are numbered along the chain they refer to. Numbers in names are those of the source.
# B1: Ab4 (germlined Ab3), IgG4 (S228P)/lambda (antibody, V domains shown)
# VH: QVQLVESGGGVVQPGRSLRLSCAASGFAFSSYGMHWVRQAPGKGLEWVAVISYDGSIKYYADSVKGRFTISRDNSKNTLYLQMNSLRAEDTAVYYCARDLLVRFLEWSHKYGMDVWGQGTTVTVSS
# VL: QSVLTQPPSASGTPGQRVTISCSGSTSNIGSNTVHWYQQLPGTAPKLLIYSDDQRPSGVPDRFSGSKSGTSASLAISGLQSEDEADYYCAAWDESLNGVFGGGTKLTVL
# notes: Human IgG4/lambda
# B2: Ab11 (antibody, V domains shown)
# VH: QLQLQQSGGGLVKPGGSLRLSCAASGFTFSSYSMNWVRQAPGKGLEWVSSISSSSSYIYYADSVKGRFTISRDNAKNSLYLQMNSLRAEDTAVYYCVRDRHSLGDFDYWGQGTLVTVSS
# VL: SSELTQPSVSVSPGQTATITCSGDKLGDKYASWYQQKPGQSPVLVIYQDTKRPSGIPARFSGSNSGNTATLTISGTQAMDEAAYYCQAWDSTTVVFGGGTKLTVLG
# notes: Fully human antibody
# B3: Ab10 (antibody, V domains shown)
# VH: EVQLVQSGGGVVQSGRSLRLSCVASGFSFSNYGMHWVRQAPGKGLEWLAFIWYDGSNKWYADSVKGRFTISRDNSKNALYLQMNSLRAEDTAVYYCARDRYSSSWGGGFDYWGQGTVLTVSS
# VL: NFMLTQPHSVSESPGRTVTIPCSGRGGSIASDSVQWYQQRPGSAPTTIIYEDNQRPSGVPDRFSGSVDSSSNSASLTISGLRTEDEADYYCQSYDASSLWVFGGKTKLTVLG
# notes: also called anti-pro/latent GDF8 antibody, Ab10
# B4: Ab12 (antibody, V domains shown)
# VH: QVQLVQSGGGLIQPGGSLRLSCAASGFTVSSYSMNWVRQAPGKGLEWVSYISSSGSTIYYADSVKGRFTISRDNAKNSLYLQMNSLRAEDTALYYCAKVGTAAAGDAFDIWGQGTMVTVSS
# VL: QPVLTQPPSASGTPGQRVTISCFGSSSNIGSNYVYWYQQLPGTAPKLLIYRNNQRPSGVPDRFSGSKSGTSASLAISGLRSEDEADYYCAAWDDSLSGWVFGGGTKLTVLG
# notes: Fully human antibody
# B5: Ab15 (antibody, V domains shown)
# VH: EVQLVQSGGGLVQPGRSLRLSCAASGFTFDDYAMHWVRQAPGKGLEWVSGISWNSGSIGYADSVKGRFTISRDNSKNTLYLQMNSLRAEDTAVYYCAKVDGLEYSSGHNFDYWGQGTLVTVSS
# VL: QSALTQPPSVSGSPGQSVTISCTGSSSDVGYYDHVSWYQHHPGRAPKVIIYDVTKRPSGVPDRFSGSKSGNTASLTISGLQAEDEADYYCSSYAGSYTWVFGGGTELTVLG
# notes: Fully human antibody
# B6: Ab9 (antibody, V domains shown)
# VH: QVQLVQSGAEVKKPGSSVKVSCKASGGTFSSYAISWVRQAPGQGLEWMGGIIPIFGTANYAQKFQGRVTITADESTSTAYMELSSLRSEDTAVYYCANHGLMDDSSGYYLSNAFDIWGQGTMVTVSS
# VL: not shown
# B7: Ab14 (antibody, V domains shown)
# VH: EVQLLESRAEVKKPGESLKISCKGSGYSFTSYWIGWVRQMPGKGPEWMGIIYPGDSDTRYSPSFQGQVTISADKSISTAYLQWSSLKASDTAMYYCARLVYGGYDEPGYYFDYWGQGTLVTVSS
# VL: not shown
# notes: Fully human antibody
# B8: Ab7 (antibody, V domains shown)
# VH: QVQLQQSGAEVKKPGASVKVSCKASGYTFTSYYMHWVRQAPGQGLEWMGIINPSGGSTSYAQKFQGRVTMTRDTSTSTVYMELSSLRSEDTAVYYCARESLIRFLEDPQQGGMDVWGQGTTVTVSS
# VL: QSALTQPASVSGSPGQSLTISCTGTSSDIGGYNYVSWYQQHPGKAPKLIIYDVTDRPSGVSGRFSGSKSGNTASLTISGLQTEDEAEYFCNSWTRSNNYIFGGGTKLTVLG
# B9: Ab13 (antibody, V domains shown)
# VH: EVQLVQSGGGLVQPGRSLRLSCAASGFTFDDYAMHWVRQAPGKGLEWVSGISWNSGSIGYADSVKGRFTISRDNAKNSLYLQMNSLRAEDTALYYCAKDTSNGGYSSSSFDYWGQGTLVTVSS
# VL: QSALTQPASVSGSPGQSITISCTGTSSDVGGYNYVSWYQQHPGTAPKLMIYDVSYRPSGVSNRFSGSKSGNTASLTISGLQAEDEADYYCSSYTSSSTLVFGTGTKVTVLG
# notes: Fully human antibody
# B10: Ab8 (antibody, V domains shown)
# VH: QIQLVQSGAEVKKPGASVKVSCKASGYTFTSYGISWVRQAPGQGLEWMGWISAYNGNTNYAQKLQGRVTMTTDTSTSTAYMELSSLRSEDTAVYYCARVGFYDYVWGSYPYDAFDIWGQGTMVTVSS
# VL: EIVMTQSPGTLSLSPGERATLSCRASQSVSSNYLAWYQQKPGQAPRLLIYDASNRATGIPARFSGSGSGTDFTLTISSLEPEDFALYYCQQYGTSPLTFGGGTKLEIKR
# B11: Ab6 (germlined Ab5), IgG4 (S228P)/lambda (antibody, V domains shown)
# VH: B1 VH with S56N, I57N
# VL: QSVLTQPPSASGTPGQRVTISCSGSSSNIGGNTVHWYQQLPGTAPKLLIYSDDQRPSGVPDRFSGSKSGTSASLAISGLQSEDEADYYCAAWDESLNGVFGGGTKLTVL
# notes: Human IgG4/lambda
# B12: Ab1 (parental), IgG4 (S228P)/lambda (antibody, V domains shown)
# VH: B1 VH with V2I, E6Q, A28T, I57N, K110Y
# VL: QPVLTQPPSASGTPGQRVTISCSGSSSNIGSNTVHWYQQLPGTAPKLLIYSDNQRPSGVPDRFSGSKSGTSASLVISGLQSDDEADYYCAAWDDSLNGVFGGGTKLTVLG
# notes: Fully human IgG4 (S228P), lambda; also called parental Ab1 IgG4; copies: 2 + 2
# Biological target: T1, murine pro-myostatin (mouse, UniProt O08689 25-376)
# T1 construct: Recombinant in the BLI and reporter assays; endogenous mouse protein in the immunoprecipitation and immunofluorescence experiments; also called proGDF8 (mouse); Murine ProGDF8
# Experiment: ForteBio Octet BLI kinetics
Binder,Kd,koff,kon
B1,1.08 nM,0.000272 s⁻¹,253000 M⁻¹ s⁻¹

# Biological target: T2, murine latent myostatin (mouse, UniProt O08689 25-267; O08689 268-376, Non-covalent complex of prodomain and growth factor; disulfide-linked homodimer, one copy of each chain is given.)
# T2 construct: recombinant in BLI, endogenous in serum immunoprecipitation; also called Murine Latent GDF8; copies: 2 + 2
# Experiment: ForteBio BLI
row,Binder,Kd
1,B2,1.8 nM
2,B3,4.2 nM
3,B4,1.9 nM
4,B5,11 nM
5,B6,7.8 nM
6,B7,18.8 nM
7,B8,28.4 nM

# Biological target: T1, murine pro-myostatin
# Experiment: ForteBio BLI
row,Binder,Kd
1,B9,4.3 nM
2,B2,1.6 nM
3,B3,3.7 nM
4,B4,3.9 nM
5,B5,4.7 nM
6,B6,8.5 nM
7,B10,1.4 nM
8,B8,32.9 nM

# Biological target: murine pro + latent GDF11 (murine, UniProt Q9Z1W4 21-405, limits assumed)
# Sequence (Q9Z1W4 21-405 limits assumed): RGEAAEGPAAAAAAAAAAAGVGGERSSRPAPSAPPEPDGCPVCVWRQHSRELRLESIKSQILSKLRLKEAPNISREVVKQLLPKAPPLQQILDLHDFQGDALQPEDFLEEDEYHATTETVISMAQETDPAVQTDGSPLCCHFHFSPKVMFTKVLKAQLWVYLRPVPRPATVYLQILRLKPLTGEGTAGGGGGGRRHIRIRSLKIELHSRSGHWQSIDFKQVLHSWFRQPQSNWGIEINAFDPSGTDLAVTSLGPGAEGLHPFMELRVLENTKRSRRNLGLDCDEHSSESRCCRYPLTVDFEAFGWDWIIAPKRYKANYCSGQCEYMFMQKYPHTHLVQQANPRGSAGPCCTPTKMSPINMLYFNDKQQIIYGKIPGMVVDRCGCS
# Experiment: ForteBio BLI
row,Binder,binding result
1,B9,no binding (tested: 200 nM)
2,B2,no binding (tested: 200 nM)
3,B3,no binding (tested: 200 nM)
4,B4,no binding (tested: 200 nM)
5,B5,no binding (tested: 200 nM)
6,B6,no binding (tested: 200 nM)
7,B7,no binding (tested: 200 nM)
8,B10,no binding (tested: 200 nM)
9,B8,no binding (tested: 200 nM)

# Biological target: T3, mature myostatin growth factor (UniProt O14793 267-375, limits assumed)
# T3 construct: mature; Amine-coupled to the sensor tips; also called Mature GDF8
# Experiment: ForteBio BLI
Binder,binding result,Kd
B9,no binding (tested: 333 nM),
B2,no binding (tested: 333 nM),
B3,no binding (tested: 333 nM),
B4,no binding (tested: 333 nM),
B5,,9.5 nM
B6,no binding (tested: 333 nM),
B7,,2.1 nM
B10,no binding (tested: 333 nM),
B8,no binding (tested: 333 nM),

# Biological target: murine latent GDF11 (murine, UniProt Q9Z1W4 21-296; Q9Z1W4 297-405, limits assumed)
# Sequence (Q9Z1W4 21-296 limits assumed, chain 1 of 2): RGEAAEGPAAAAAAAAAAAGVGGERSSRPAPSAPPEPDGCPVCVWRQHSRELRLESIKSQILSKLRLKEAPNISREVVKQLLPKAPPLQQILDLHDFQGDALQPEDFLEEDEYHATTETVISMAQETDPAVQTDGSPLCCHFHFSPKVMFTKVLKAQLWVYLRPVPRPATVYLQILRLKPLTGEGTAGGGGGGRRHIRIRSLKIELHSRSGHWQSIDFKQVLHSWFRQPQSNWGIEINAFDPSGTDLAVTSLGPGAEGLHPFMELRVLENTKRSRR
# Sequence (Q9Z1W4 297-405 limits assumed, chain 2 of 2): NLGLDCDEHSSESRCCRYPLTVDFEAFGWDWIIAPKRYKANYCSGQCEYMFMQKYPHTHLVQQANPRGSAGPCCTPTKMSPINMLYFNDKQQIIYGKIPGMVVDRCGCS
# Experiment: ForteBio BLI
row,Binder,binding result
1,B9,no binding (tested: 200 nM)
2,B2,no binding (tested: 200 nM)
3,B3,no binding (tested: 200 nM)
4,B4,no binding (tested: 200 nM)
5,B5,no binding (tested: 200 nM)
6,B6,no binding (tested: 200 nM)
7,B7,no binding (tested: 200 nM)
8,B10,no binding (tested: 200 nM)
9,B8,no binding (tested: 200 nM)

# Biological target: T1, murine pro-myostatin
# Experiment: cell-based or functional assay
row,Binder,Activity Assay - 293T cells EC50
1,B1,447 nM

# Biological target: human pro-myostatin (human, UniProt O14793 24-375)
# Experiment: cell-based or functional assay
row,Binder,"Human proGDF8 IC50, Reporter assay"
1,B3,772 nM
2,B6,12200 nM
3,B10,6040 nM
4,B8,983 nM

# Biological target: T1, murine pro-myostatin
# Experiment: cell-based or functional assay
# Remark: another data set of the same source
row,Binder,"Murine proGDF8 IC50, Reporter assay"
1,B6,19900 nM
2,B10,139000 nM
3,B8,1680 nM

# Biological target: T4, pro-myostatin (proGDF8), species not stated in the experiment (UniProt O14793 24-375, limits assumed)
# T4 construct: also called pro/latent-myostatin
# Experiment: ForteBio Octet, biotinylated antigen on streptavidin sensor; IgG1
row,Binder,Kd
1,B3,300 nM
2,B6,22000 nM
3,B10,500 nM
4,B8,28000 nM

# Biological target: T1, murine pro-myostatin
# Experiment: ForteBio Octet BLI kinetics
# Remark: another data set of the same source
Binder,Kd,koff,kon
B11,0.954 nM,0.000281 s⁻¹,294000 M⁻¹ s⁻¹

# Biological target: T1, murine pro-myostatin
# Experiment: cell-based or functional assay
# Remark: another data set of the same source
row,Binder,Activity Assay - 293T cells EC50
1,B12,839 nM

# Biological target: T1, murine pro-myostatin
# Experiment: ForteBio Octet BLI kinetics
# Remark: another data set of the same source
Binder,Kd,koff,kon
B12,11 nM,0.00262 s⁻¹,237000 M⁻¹ s⁻¹

# Biological target: T1, murine pro-myostatin
# Experiment: cell-based or functional assay
# Remark: another data set of the same source
row,Binder,Activity Assay - 293T cells EC50
1,B11,307 nM

# Biological target: T1, murine pro-myostatin
# Experiment: cell-based or functional assay
# Remark: another data set of the same source
row,Binder,EC50 Activation Assay
1,B2,1380 nM
2,B3,373 nM
3,B10,1600 nM
4,B8,555 nM

# Biological target: proGDF11 (UniProt O95390 25-407, limits assumed)
# Sequence (O95390 25-407 limits assumed): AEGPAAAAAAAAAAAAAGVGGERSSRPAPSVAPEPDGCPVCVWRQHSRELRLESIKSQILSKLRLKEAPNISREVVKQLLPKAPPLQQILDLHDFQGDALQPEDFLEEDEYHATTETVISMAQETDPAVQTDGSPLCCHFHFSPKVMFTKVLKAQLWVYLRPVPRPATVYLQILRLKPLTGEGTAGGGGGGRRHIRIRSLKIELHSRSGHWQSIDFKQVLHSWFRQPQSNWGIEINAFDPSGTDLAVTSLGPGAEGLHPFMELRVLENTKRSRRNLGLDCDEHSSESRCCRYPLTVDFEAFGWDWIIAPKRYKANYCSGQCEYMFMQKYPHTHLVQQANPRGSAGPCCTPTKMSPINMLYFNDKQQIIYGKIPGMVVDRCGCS
# Experiment: ForteBio Octet QKe BLI, antibody 50 µg/mL; flagged * non-specific binding, fitted to a poor response
# Procedure: Binding affinities of antibody candidates were determined using the FortéBio Octet QKe dip and read label free assay system utilizing bio-layer interferometry. Antigens were immobilized to biosensors (streptavidin-coated biosensors for proGDF8, proGDF11 and proActivin; direct amine coupling for all others) in each experiment and the antibodies/constructs were presented in solution at high concentration (50 μg/mL) to measure binding interactions.
row,Binder,Kd
1,B1,125 nM
2,B11,60.7 nM
